B1: LIM and senescent cell antigen-like-containing domain protein 2, residues 13 to 71; numbered along this chain, Q7Z4I7 (parent)
chain: AVCQRCQARFSPAERIVNSNGELYHEHCFVCAQCFRPFPEGLFYEFEGRKYCEHDFQML

± gives the uncertainty stated by the source.

The variants in the data set derive from B1. Kind of data set: abundance fitness (aPCA) (normalised: wild type 0, dead -1); higher = more abundant; growth selection in yeast, the domain comes from the species named. Conditions: Homo sapiens.
Regarding AVCQRCQARFSPAERIVNSNGELYHEHCFVCAQCFRPFPEGLFYEDEGRKYCEHDFQML [F46D], the abundance fitness is -0.217 ± 0.13.

For AVCQRCQARFSPAERIVNSNGELYHEHCFVCAQCFRPFPEGLFYELEGRKYCEHDFQML [F46L], the abundance fitness was 0.029 ± 0.057.

As to AACQRCQARFSPAERIVNSNGELYHEHCFVCAQCFRPFPEGLFYEFEGRKYCEHDFQML [V2A], the abundance fitness is -0.53 ± 0.13.

For the variant AYCQRCQARFSPAERIVNSNGELYHEHCFVCAQCFRPFPEGLFYEFEGRKYCEHDFQML [V2Y], the abundance fitness was -0.097 ± 0.11.

Consider AHCQRCQARFSPAERIVNSNGELYHEHCFVCAQCFRPFPEGLFYEFEGRKYCEHDFQML [V2H], for which the abundance fitness was -0.238 ± 0.17.

As for AVCQRCQARFSPAERIVNSNGELYHEHCFVCAQCFRPFPEGLFYEFEGRKYCRHDFQML [E53R], the abundance fitness was -0.027 ± 0.053.

Regarding AVCQRCQVRFSPAERIVNSNGELYHEHCFVCAQCFRPFPEGLFYEFEGRKYCEHDFQML [A8V], the abundance fitness was 0.071 ± 0.061.

Consider AVCQRCQMRFSPAERIVNSNGELYHEHCFVCAQCFRPFPEGLFYEFEGRKYCEHDFQML [A8M], for which the abundance fitness turned out to be 0.151 ± 0.062.

Regarding AVCQRCQARFSPAEMIVNSNGELYHEHCFVCAQCFRPFPEGLFYEFEGRKYCEHDFQML [R15M], the abundance fitness was -0.069 ± 0.076.

In the case of AVCQRCQARFSPAFRIVNSNGELYHEHCFVCAQCFRPFPEGLFYEFEGRKYCEHDFQML [E14F], the abundance fitness is -0.658 ± 0.17.

As to AVCQRCQARFSPAERIVNSNGELNHEHCFVCAQCFRPFPEGLFYEFEGRKYCEHDFQML [Y24N], the abundance fitness is -0.474 ± 0.11.

AVCQRCQARFSPAERIVNSNGELTHEHCFVCAQCFRPFPEGLFYEFEGRKYCEHDFQML [Y24T]: the abundance fitness was -0.232 ± 0.054.

For the variant AVCQRCQARFSPAERIVNSNGELWHEHCFVCAQCFRPFPEGLFYEFEGRKYCEHDFQML [Y24W], the abundance fitness was -0.123 ± 0.049.

On to AVCQRCQARFSPAERIVNSNGELYHEHCLVCAQCFRPFPEGLFYEFEGRKYCEHDFQML [F29L], for which the abundance fitness is -0.011 ± 0.051.

For the variant AVCQRCQARFSPAERIVNSNGELYHEHCHVCAQCFRPFPEGLFYEFEGRKYCEHDFQML [F29H], the abundance fitness was found to be 0.042 ± 0.11.

For the variant AVCQRCQARFSPAERGVNSNGELYHEHCFVCAQCFRPFPEGLFYEFEGRKYCEHDFQML [I16G], the abundance fitness was -0.178 ± 0.085.

Take AVCQRCQARFSPAERAVNSNGELYHEHCFVCAQCFRPFPEGLFYEFEGRKYCEHDFQML [I16A]: the abundance fitness was -0.1 ± 0.058.

As for AVNQRCQARFSPAERIVNSNGELYHEHCFVCAQCFRPFPEGLFYEFEGRKYCEHDFQML [C3N], the abundance fitness was -0.687 ± 0.13.

AVCQRCQARFHPAERIVNSNGELYHEHCFVCAQCFRPFPEGLFYEFEGRKYCEHDFQML [S11H]: the abundance fitness is -0.407 ± 0.16.

As to AVCQRCQARFSPAERIVNSNGELYHEHCFVCAQCFRPFPEGLFYEFEGRKYQEHDFQML [C52Q], the abundance fitness is -0.597 ± 0.14.

Consider AVCQRCQARFSPAERIVNSNGELYHEHCFVCAQCFRPFPEGLFYEFEGRKYSEHDFQML [C52S], for which the abundance fitness is -0.798 ± 0.12.

For AVCQRCQARFSPAERIVNSNGELYHEHCFVCAQCFRPFPEGLFYEFEGRKYREHDFQML [C52R], the abundance fitness was -0.839 ± 0.11.

On to AVCQRCQARFSPAERIVNSNGELYHEHCFVCAQCFRPFPEGLFYVFEGRKYCEHDFQML [E45V], for which the abundance fitness is -0.061 ± 0.35.

Take AVCQRCQARFSPAERIVNSNGELYHEHCFVCAQCFRPFPEGLFYEFEYRKYCEHDFQML [G48Y]: the abundance fitness is -0.451 ± 0.1.

Consider AVCQRCQARFSPWERIVNSNGELYHEHCFVCAQCFRPFPEGLFYEFEGRKYCEHDFQML [A13W], for which the abundance fitness is -0.372 ± 0.083.

On to AVCQRCQARFSRAERIVNSNGELYHEHCFVCAQCFRPFPEGLFYEFEGRKYCEHDFQML [P12R], for which the abundance fitness was -0.212 ± 0.069.

Take AVCQRCQARFSHAERIVNSNGELYHEHCFVCAQCFRPFPEGLFYEFEGRKYCEHDFQML [P12H]: the abundance fitness was 0.186 ± 0.22.

For AVCQRCQARFSPAERIVNDNGELYHEHCFVCAQCFRPFPEGLFYEFEGRKYCEHDFQML [S19D], the abundance fitness worked out at 0.058 ± 0.11.

Turning to AVCQRCQARFSPAERIVNYNGELYHEHCFVCAQCFRPFPEGLFYEFEGRKYCEHDFQML [S19Y], the abundance fitness was -0.455 ± 0.15.

Consider AVCQRCQARFSPAERIVNGNGELYHEHCFVCAQCFRPFPEGLFYEFEGRKYCEHDFQML [S19G], for which the abundance fitness was found to be 0.015 ± 0.07.

For AVCQRCQARFSPAERIVNSCGELYHEHCFVCAQCFRPFPEGLFYEFEGRKYCEHDFQML [N20C], the abundance fitness is -0.038 ± 0.1.

With AVCQRCQARFSPAERIVNSNGELYHEHCFECAQCFRPFPEGLFYEFEGRKYCEHDFQML [V30E], the abundance fitness is -0.294 ± 0.16.

As for AVCQRCQARFSPAERIVNSNGELYHEHCFSCAQCFRPFPEGLFYEFEGRKYCEHDFQML [V30S], the abundance fitness was -0.114 ± 0.063.

In the case of AVCQRCQARFSPAERIVNSNGELYHEHCFHCAQCFRPFPEGLFYEFEGRKYCEHDFQML [V30H], the abundance fitness was -0.143 ± 0.18.

With AVCQRCQARFSPAERIVNSNGELYHEHCFVTAQCFRPFPEGLFYEFEGRKYCEHDFQML [C31T], the abundance fitness was -0.975 ± 0.11.

In the case of AVCQRCQARFSPAERIVNSNGELYHEHCFVWAQCFRPFPEGLFYEFEGRKYCEHDFQML [C31W], the abundance fitness is -0.893 ± 0.11.

Turning to AVCQRCQARFSPAERIVNSNGELYHEHCFVCAQCKRPFPEGLFYEFEGRKYCEHDFQML [F35K], the abundance fitness turned out to be 0.204 ± 0.086.

Take AVCQRCQARFSPAERIVNSNGELYHEHCFVCAQCERPFPEGLFYEFEGRKYCEHDFQML [F35E]: the abundance fitness was 0.144 ± 0.086.

With AVCQRCQARHSPAERIVNSNGELYHEHCFVCAQCFRPFPEGLFYEFEGRKYCEHDFQML [F10H], the abundance fitness is -0.343 ± 0.16.

For the variant AVCQRCQARFSPAERIVNSNGELYHKHCFVCAQCFRPFPEGLFYEFEGRKYCEHDFQML [E26K], the abundance fitness was -0.125 ± 0.1.

As for AVCQRCQARFSPAERIVNSNGELYHDHCFVCAQCFRPFPEGLFYEFEGRKYCEHDFQML [E26D], the abundance fitness was -0.114 ± 0.19.

With AVCQRCQARFSPAERIVNSNGELYHHHCFVCAQCFRPFPEGLFYEFEGRKYCEHDFQML [E26H], the abundance fitness was -0.082 ± 0.2.

AVCQRCQARFSPAERIVNSNGELYHEHCFVCAQCFRPFPEWLFYEFEGRKYCEHDFQML [G41W]: the abundance fitness is -0.253 ± 0.28.

For the variant AVCQRCQARFSPAERIVNSNGELYHEHCFVCAQCFRPFPEGLFEEFEGRKYCEHDFQML [Y44E], the abundance fitness was -0.086 ± 0.089.

On to AVCQRCQARFSPAERIVNSNGELYHEHCFVCASCFRPFPEGLFYEFEGRKYCEHDFQML [Q33S], for which the abundance fitness is -0.135 ± 0.076.

The values above are taken from the Human Domainome abundance scans (Beltran et al. 2025).
